# Source: US20200181248A1 (Chugai, published 2020)
# Biological target: T1, soluble form of human GPC3 (lacking the C-terminal hydrophobic region 564-580, Flag-tagged, heparan sulfate … (human, UniProt P51654 25-563, heparan sulfate modification (smear-like band of 50 to 300 kDa)))
# T1 construct: also called soluble form of GPC3; purified soluble form of GPC3; not shown: Flag tag from vector pCXND2-Flag
# Test: sandwich ELISA: the concentration varied is that of soluble GPC3 ('GPC3 hepa'); M6B1 coated as capture, biotin-labeled M18D4 as detection
# T1 sequence (P51654 25-563, form in doubt): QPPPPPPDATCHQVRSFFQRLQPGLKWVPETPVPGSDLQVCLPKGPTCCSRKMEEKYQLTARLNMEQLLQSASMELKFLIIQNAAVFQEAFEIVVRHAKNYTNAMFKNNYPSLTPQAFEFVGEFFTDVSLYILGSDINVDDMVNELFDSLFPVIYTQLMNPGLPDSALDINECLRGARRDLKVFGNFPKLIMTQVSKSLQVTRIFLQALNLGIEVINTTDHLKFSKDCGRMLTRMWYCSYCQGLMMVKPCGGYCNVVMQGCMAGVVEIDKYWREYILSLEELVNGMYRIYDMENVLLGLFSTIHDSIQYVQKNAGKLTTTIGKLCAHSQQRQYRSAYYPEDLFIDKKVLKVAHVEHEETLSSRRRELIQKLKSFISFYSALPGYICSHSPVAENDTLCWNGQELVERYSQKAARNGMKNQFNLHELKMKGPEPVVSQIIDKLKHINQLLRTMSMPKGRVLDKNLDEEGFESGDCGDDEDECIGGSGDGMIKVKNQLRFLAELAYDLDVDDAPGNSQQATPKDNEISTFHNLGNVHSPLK
binder,measurement,value
"M6B1 (antibody, V domains shown) VH: EVQLVESGGDLVKPGGSLKLSCAASGFTFSSYAMSWVRQTPEKRLEWVAAINSNGGTTYYPDTMKDRFTISRDNAKNTLYLQMSSLRSEDSALYYCTRHNGGYENYGWFAYWGQGTLVTVSA VL: DIQMTQSPSSLSASLGGKVTITCKASQDINKNIIWYQHKPGKGPRLLIWYTSTLQPGIPSRFSGSGSGRDYSFSISNLEPEDIATYYCLQYDNLPRTFGGGTKLEIK",EC50 (read off the curve),~0.02 µg/mL
